# Key:
# [1] = Molecular assays (HPLC, mass spectrometry, isoelectric focusing, immunoassay) of recovered aerosol versus initial formulation; format: physicochemical
# Text: During testing, it was useful to ensure that the composition of the aerosol emanating from the device was the same in all discernable aspects as the formulation filled into the device.
# [2] = tested on: receptors introduced to the cells specific to the test protein; test: Transgenic cell bioassay of recovered aerosol versus formulation before aerosolization; format: cell-based; conditions: hGH 2 mg/mL, 6% w/w PEG 3000, 0.1% w/v TWEEN 20; thermal inkjet, aerosol condensed and recovered; FIG. 1
# Protocol: Proteins were tested with a transgenic cell bioassays with receptors introduced to the cells specific to the test protein. These bioassays were appropriate for indicating the functional effectiveness of the protein. Molecular assays were performed to indicate the primary or tertiary structure of the molecule. Assays used included size exclusion high performance liquid chromatography, reverse phase high performance liquid chromatography, mass spectrometry, isoelectric focusing and immunoassay.
# Each protein was formulated at a concentration that was calculated to be of clinical significance such that the plume of aerosol contained the required amount of therapeutic. Humectant was added to the protein formulation which was filled into an inkjet cartridge and fired from the cartridge.
# Resistor surfaces and nozzles were inspected by Scanning Electron Microscopy to establish the cleanliness of the surfaces and subsequently the effectiveness of the humectant and surfactant. When humectant and surfactant concentrations were suitable, the aerosol from the device was collected, analyzed, and compared with the solution before aerosolization.
# Human growth hormone (hGH) was formulated at 2 mg/mL with 6% w/w PEG 3000 and 0.1% w/v TWEEN® 20. The formulation was unbuffered and no additional salts were added to the formulation. […]
# [3] = Droplet size of the thermal inkjet aerosol measured by Malvern laser; format: physicochemical; conditions: hGH 2 mg/mL, 6% w/w PEG 3000, 0.1% w/v TWEEN 20, unbuffered
compound,measurement,setting,value
Insulin,"reverse-phase HPLC comparison (retention time, peak shape) before, after recovered and after repeated aerosolization","[1]; insulin 10 mg/mL, 6% w/v PEG 8000, 0.1% w/v TWEEN 80, thermal inkjet, FIG. 2",no measurable differences
"CN1CCCC1c1cccnc1 (centres unmarked) [Nicotine, reference compound]",comparison of solution during or after dosage (aerosolization),[1]; nicotine up to 50% w/w in water with 0.1% w/v TWEEN 20,no measurable difference
Human growth hormone,bioassay comparison of formulation before and after aerosolization,[2],no measurable difference
same,HPLC comparison of formulation before and after aerosolization,"[1]; hGH 2 mg/mL, 6% w/w PEG 3000, 0.1% w/v TWEEN 20, thermal inkjet, aerosol condensed and recovered",no measurable difference
same,average droplet size of formulation aerosol,[3],8 μm
